Biological target: the molecule itself
Experiment: mass spectrometry

B1: MinE-His (wild-type MinE with a His tag, plasmid pSOT13 [PT7::minE-his]) (natural protein, E. coli, UniProt P0A734 1-88, looked up)
chain: MALLDFFLSRKKNTANIAKERLQIIVAERRRSDAEPHYLPQLRKDILEVICKYVQIDPEMVTVQLEQKDGDISILELNVTLPEAEELK
  stoichiometry N: 2

— publication PMC2814086 (Molecular Microbiology, 2009)
